Experimental data: US20210317200A1 (MABPROTEIN, published 2021)
No end group written: not given here.

Experiments:
[1] = target: T1, peptide S43A (alanine variant of …) (human, not fully specified); test: ELISA on BSA-crosslinked peptide (alanine scanning)
T1 construct: Position is counted on IL-18
T1 peptide: YFGKLEAKC

[2] = target: T2, peptide K44A (alanine variant of …) (human, not fully specified); test: as above
T2 construct: Position is counted on IL-18
T2 peptide: YFGKLESAC

[3] = target: T3, peptide F38A (alanine variant of …) (human, not fully specified); test: as above
T3 construct: Position is counted on IL-18
T3 peptide: YAGKLESKC

[4] = target: T4, neoepitope peptide (positions 37 to 44, C-terminal Cys) with positions 41 to 44 substituted with alanine (human, not fully specified); test: ELISA on BSA-crosslinked peptide (neoepitope fine analysis)
T4 construct: Member of the successive alanine series, derived from the description of the series; Positions are counted on IL-18; also called peptide having the presence of lysine at position 40
T4 peptide: YFGKAAAAC

[5] = target: T5, neoepitope peptide (positions 37 to 44, C-terminal Cys) with positions 42 to 44 substituted with alanine (human, not fully specified); test: as above
T5 construct: Member of the successive alanine series, derived from the description of the series; Positions are counted on IL-18; also called peptide having the presence of lysine at position 40
T5 peptide: YFGKLAAAC

[6] = target: T6, neoepitope peptide (positions 37 to 44, C-terminal Cys) with positions 43 to 44 substituted with alanine (human, not fully specified); test: as above
T6 construct: Member of the successive alanine series, derived from the description of the series; Positions are counted on IL-18; also called peptide having the presence of lysine at position 40
T6 peptide: YFGKLEAAC

[7] = target: T7, peptide G39A (alanine variant of …) (human, not fully specified); test: ELISA on BSA-crosslinked peptide, alanine scanning; row [..]
T7 construct: Position is counted on IL-18
T7 peptide: YFAKLESKC

[8] = target: T8, peptide Y37A (alanine variant of …) (human, not fully specified); test: ELISA on BSA-crosslinked peptide, alanine scanning; row AFGKLESK
T8 construct: Position is counted on IL-18
T8 peptide: AFGKLESKC

[9] = target: T3, peptide F38A (alanine variant of …); test: ELISA on BSA-crosslinked peptide, alanine scanning; row YAGKLESK
[10] = target: peptide K40A (alanine variant of …) (human, C-terminal Cys crosslinked to BSA in ELISA; thiol-coupled to sensor chip CM5 in SPR); test: ELISA on BSA-crosslinked peptide, alanine scanning; row YFGALESK
[11] = target: T9, peptide L41A (alanine variant of …) (human, not fully specified); test: ELISA on BSA-crosslinked peptide, alanine scanning; row YFGKAESK
T9 construct: Position is counted on IL-18
T9 peptide: YFGKAESKC

[12] = target: T10, peptide E42A (alanine variant of …) (human, not fully specified); test: ELISA on BSA-crosslinked peptide, alanine scanning; row YFGKLASK
T10 construct: Position is counted on IL-18
T10 peptide: YFGKLASKC

[13] = target: T1, peptide S43A (alanine variant of …); test: ELISA on BSA-crosslinked peptide, alanine scanning; row YFGKLEAK
[14] = target: T2, peptide K44A (alanine variant of …); test: ELISA on BSA-crosslinked peptide, alanine scanning; row YFGKLESA
[15] = target: T11, neoepitope peptide (positions 37 to 44, C-terminal Cys) with positions 40 to 44 substituted with alanine (human, not fully specified); test: ELISA on BSA-crosslinked peptide, neoepitope fine analysis; row YFGAAAAA
T11 peptide: YFGAAAAAC

[16] = target: T4, neoepitope peptide (positions 37 to 44, …); test: ELISA on BSA-crosslinked peptide, neoepitope fine analysis; row YFGKAAAA
[17] = target: T5, neoepitope peptide (positions 37 to 44, …); test: ELISA on BSA-crosslinked peptide, neoepitope fine analysis; row YFGKLAAA
[18] = target: T6, neoepitope peptide (positions 37 to 44, …); test: ELISA on BSA-crosslinked peptide, neoepitope fine analysis; row YFGKLEAA
[19] = target: T2, peptide K44A (alanine variant of …); test: ELISA on BSA-crosslinked peptide, neoepitope fine analysis; row YFGKLESA
[20] = target: T12, neoepitope peptide IL-18^37-44 with C-terminal cysteine (YFGKLESKC) (human, not fully specified); test: SPR, Biacore X100, peptide thiol-coupled to CM5, antibody 0.4-250 nM, single-cycle, bivalent analysis
T12 construct: also called IL-18^37-44 peptide; wild-type peptide
T12 peptide: YFGKLESKC

[21] = target: T12, neoepitope peptide IL-18^37-44 with …; test: ELISA on BSA-crosslinked peptide, alanine scanning; row YFGKLESK (reference set as 100)
[22] = target: T12, neoepitope peptide IL-18^37-44 with …; test: ELISA on BSA-crosslinked peptide, neoepitope fine analysis; row YFGKLESK (reference set as 100)
[23] = target: T13, activated IL-18 protein (IL-18^37-193) (human, UniProt Q14116 37-193); test: cell-based or functional assay
T13 sequence (looked up): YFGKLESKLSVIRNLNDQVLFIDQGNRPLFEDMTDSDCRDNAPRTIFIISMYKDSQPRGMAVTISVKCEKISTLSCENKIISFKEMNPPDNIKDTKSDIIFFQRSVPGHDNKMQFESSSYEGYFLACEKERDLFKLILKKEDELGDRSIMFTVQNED

Row | Binder | percent binding relative to the wild-type peptide [1] [%] | percent binding relative to the wild-type peptide [2] [%] | percent binding relative to the wild-type peptide [3] [%] | reactivity relative to the wild-type peptide [4] | reactivity relative to the wild-type peptide [5] | reactivity relative to the wild-type peptide [6] | ELISA absorbance relative to wild-type peptide (= 100) [7] | ELISA absorbance relative to wild-type peptide (= 100) [8] | ELISA absorbance relative to wild-type peptide (= 100) [9] | ELISA absorbance relative to wild-type peptide (= 100) [10] | ELISA absorbance relative to wild-type peptide (= 100) [11] | ELISA absorbance relative to wild-type peptide (= 100) [12] | ELISA absorbance relative to wild-type peptide (= 100) [13] | ELISA absorbance relative to wild-type peptide (= 100) [14] | ELISA absorbance relative to wild-type peptide (= 100) [15] | ELISA absorbance relative to wild-type peptide (= 100) [16] | ELISA absorbance relative to wild-type peptide (= 100) [17] | ELISA absorbance relative to wild-type peptide (= 100) [18] | ELISA absorbance relative to wild-type peptide (= 100) [19] | ELISA absorbance relative to wild-type peptide (= 100) [21] | other results
1 | monoclonal antibody 9-10.2 (antibody, V domains shown) VH: SLTCSFSGFSLSSSGMGVGWIRQPSGKGLEWLAHIWWDDDKNYNPGLKSRLTISKDTSKNQVFLKIANVDTADAATYYCTRTRTYSNFGGGMAYWGQGTSVTVSS VL: LGDQASISCRSSQSIAHSNGYTYLEWYLQTPGQSPKLLIYKVSNRFSGVPDRFSGSGSGTDFTLKISRVEAEDLGVYYCVQGSHVPLTFGAGTKLELK | ~50 | ~50 | ~50 | ~0.25 fraction of wild-type peptide | ~0.25 fraction of wild-type peptide | ~0.25 fraction of wild-type peptide | 2.5 | 0.3 | 50 | 2.6 | 14 | 20 | 45 | 39 | 5 | 26 | 13 | 27 | 44 | 100 | Kd [20]: 0.19 nM; kon [20]: 210000 M⁻¹ s⁻¹; ELISA absorbance relative to wild-type peptide (= 100) [22]: 100
2 | monoclonal antibody 8-4.1 (antibody, V domains shown) VH: LSITCTVSGFSLTSYGVHWVRQPPGKGLEWLGVIWAGGSTNYNSALMSRLSISKDNSKSQVFLKMNSLQTDDTAMYYCARESSYDAMDYWGQGTSVTVSS VL: DIVITQSPKSMSMSVGERVTLTCKASENVVTYVSWYQQKPEQSPKLMIYGASNRYTGVPDRFTGSGSATDFTLTISSVQAEDLADYHCGQGYSYPYTFGGGTKLEIK | ~50 | ~50 | ~50 | ~0.25 fraction of wild-type peptide | ~0.25 fraction of wild-type peptide | ~0.25 fraction of wild-type peptide | 3.2 | 0.8 | 44 | 1.8 | 33 | 34 | 55 | 67 | 6 | 27 | 23 | 56 | 27 | 100 | IC50 (read off the curve) [23]: ~0.6 µg; ELISA absorbance relative to wild-type peptide (= 100) [22]: 100
